Data: patent US20220151977A1, “Generation Of Water-Soluble Cannabinoids Utilizing Protein Cannabinoid-Carriers” (Trait Biosciences, Inc., priority 2019, published 2022)

Legend:
[1] = Ligand binding assay by ANS displacement, THC; settings: 2 μM protein, 20 μM ANS, 33 μM ligand, 20° C.; for binding to THC by ANS displacement (relative change in fluorescence): FIG. 8; for Purification Status (binding to THC): Table 3
[2] = Ligand binding assay by ANS displacement, CBD; settings: 2 μM protein, 20 μM ANS, 33 μM ligand, 20° C.; for binding to CBD by ANS displacement (relative change in fluorescence): FIG. 8; for Purification Status (binding to CBD): Table 3

B1: 1 (protein)
chain: MTSTEKKDMKAVKGLDLERYMGRWYEIASFPSRFQPKDGVDTRATYTLNPDGTVHVLNETWNGGKRGFIQGSAYKADPKSDEAKLKVKFFVPPFLPVIPVTGDYWVLYIDPEYQHAVIGQPSRSYLWILSRTAHMEEETYKQLVEKAVEEGYDVSKLHKTPQSDTPPESNTAPDDTKGVWWLKSIFGK
modifications: Cluster63 Unique
[1]
  binding to THC by ANS displacement (relative change in fluorescence): bind to both THC and CBD
[2]
  binding to CBD by ANS displacement (relative change in fluorescence): bind to both THC and CBD

B2: 10 (protein)
chain: MHVSTRQPCGAAPTAWPAQRPRSSPRRLACSAVLRDDARGVLQQAGLKLAAAAAAVLLAAPLHAGAASMPANAPLPALPPAPFDIEQSKQSKLLFDPMAYSGRWYEVASLKRGFAGEGQQDCHCTQGIYTPKEGGPEGAIKLEVDTFCVHGGPGGRLSGIQGSVSCADPLLLSYLPEFQTEMEMVEGFVAKCALRFDSLAFLPPEPYVVLRTDYTSYALVRGAKDRSFVQIYSRTPNPGAKFIAEQKAVLGQLGYPANDIVDTPQDCPEMAPQAMMAAMNRGMSSTPTMPASTPPALAMAGYDLGPAAVVLGEEAPAPVKGIAFDRLRNPLESLKNVFSLFN
modifications: Micractinium conductrix
[1]
  binding to THC by ANS displacement (relative change in fluorescence): bind to both THC and CBD
[2]
  binding to CBD by ANS displacement (relative change in fluorescence): bind to both THC and CBD

B3: 30 (protein)
chain: MAYSGRWYEVASLKRGFAGEGQQDCHCTQGIYTPKEGGPEGAIKLEVDTFCVHGGPGGRLSGIQGSVSCADPLLLSYLPEFQTEMEMVEGFVAKCALRFDSLAFLPPEPYVVLRTDYTSYALVRGAKDRSFVQIYSRTPNPGAKFIAEQKAVLGQLGYPANDIVDTPQDCPEMAPQ
modifications: Micractinium conductrix
[1]
  binding to THC by ANS displacement (relative change in fluorescence): bind to both THC and CBD
[2]
  binding to CBD by ANS displacement (relative change in fluorescence): bind to both THC and CBD

B4: 33 (protein, listed as Macleaya cordata)
chain: MIRYSGRWFEVASLKRGFAGSGQEDCHCTQGVYTFDSEAPAIQVDTFCVHGGPDGYITGIRGKVQCLSEEDLEKNETDLEKRVMIREKCYLRFPTLPFIPKEPYDVIATDYDNFALVSGAKDTSFIQIYSRTPNPGPEFIEKYKSYLGNYGYDPSMIKDTPQ
[1]
  binding to THC by ANS displacement (relative change in fluorescence): bind to both THC and CBD
[2]
  binding to CBD by ANS displacement (relative change in fluorescence): bind to both THC and CBD

B5: SEQ ID NO. 121: odorant-binding protein 1a-like, Mus caroli (Ryukyu mouse) (protein, listed as Mus caroli)
chain: MVKFLLLELAFGLAHAQMYGPWKTIAIAADNVDKMEISGELRLYFHQITCEKECKKMNVTFYVDENGQCSLTTITGYLQDDGKTYRSQFQGDNHYATVRTTPENIVFYSENVDRAGRKTKLVYVVGKNGSGSLK
[1]; listed as OBP2
  binding to THC by ANS displacement (relative change in fluorescence): highest binding affinity
[1]
  Purification Status (binding to THC): Binds to THC
[2]; listed as OBP2
  binding to CBD by ANS displacement (relative change in fluorescence): highest binding affinity
[2]
  Purification Status (binding to CBD): Binds to THC

B6: SEQ ID NO. 30: PSC68250.1 lipocalin-like domain (partial), Micractinium conductrix (protein)
chain: MAYSGRWYEVASLKRGFAGEGQQDCHCTQGIYTPKEGGPEGAIKLEVDTFCVHGGPGGRLSGIQGSVSCADPLLLSYLPEFQTEMEMVEGFVAKCALRFDSLAFLPPEPYVVLRTDYTSYALVRGAKDRSFVQIYSRTPNPGAKFIAEQKAVLGQLGYPANDIVDTPQDCPEMAPQ
modifications: Micractinium conductrix
notes: PSC68250.1 lipocalin-like domain (partial), Micractinium conductrix
[1]
  binding to THC by ANS displacement (relative change in fluorescence): binds to THC better than full length
  Purification Status (binding to THC): Binds to CBD
[2]
  Purification Status (binding to CBD): Binds to CBD

B7: SEQ ID NO. 33: OVA10565.1 Lipocalin/cytosolic fatty-acid binding domain (partial), Macleaya cordata (protein, listed as Macleaya cordata)
chain: MIRYSGRWFEVASLKRGFAGSGQEDCHCTQGVYTFDSEAPAIQVDTFCVHGGPDGYITGIRGKVQCLSEEDLEKNETDLEKRVMIREKCYLRFPTLPFIPKEPYDVIATDYDNFALVSGAKDTSFIQIYSRTPNPGPEFIEKYKSYLGNYGYDPSMIKDTPQ
[1]
  Purification Status (binding to THC): Binds to CBD
[2]
  Purification Status (binding to CBD): Binds to CBD

B8: SEQ ID NO. 1: Cluster63 Unique, artificial consensus sequence based on a family of homologous plant lipocalin sequences (protein)
chain: MTSTEKKDMKAVKGLDLERYMGRWYEIASFPSRFQPKDGVDTRATYTLNPDGTVHVLNETWNGGKRGFIQGSAYKADPKSDEAKLKVKFFVPPFLPVIPVTGDYWVLYIDPEYQHAVIGQPSRSYLWILSRTAHMEEETYKQLVEKAVEEGYDVSKLHKTPQSDTPPESNTAPDDTKGVWWLKSIFGK
modifications: Cluster63 Unique
[1]
  Purification Status (binding to THC): Binds to CBD
[2]
  Purification Status (binding to CBD): Binds to CBD

B9: SEQ ID NO. 148: Odorant-binding protein, partial, Heterocephalus glaber (naked mole-rat) (protein)
chain: MINGDWCSIYIAADNVEKIEERGELRAYFCHIECQDECRNLSGGDRIMRNKHCCVGLSFRLDGVCQEFTVVGVKDEKSGVYITDYVGKNYFTVVESTEYITLFSNIIVDEKGTKMNVVLVAAKRDSLTEKEKQKFAQLAEEKGIPTENIRNVIAT
modifications: Heterocephalus glaber
[1]
  Purification Status (binding to THC): Binds to THC
[2]
  Purification Status (binding to CBD): Binds to THC

B10: SEQ ID NO. 10: PSC68250.1 lipocalin-like domain, Micractinium conductrix (green algae) (protein)
chain: MHVSTRQPCGAAPTAWPAQRPRSSPRRLACSAVLRDDARGVLQQAGLKLAAAAAAVLLAAPLHAGAASMPANAPLPALPPAPFDIEQSKQSKLLFDPMAYSGRWYEVASLKRGFAGEGQQDCHCTQGIYTPKEGGPEGAIKLEVDTFCVHGGPGGRLSGIQGSVSCADPLLLSYLPEFQTEMEMVEGFVAKCALRFDSLAFLPPEPYVVLRTDYTSYALVRGAKDRSFVQIYSRTPNPGAKFIAEQKAVLGQLGYPANDIVDTPQDCPEMAPQAMMAAMNRGMSSTPTMPASTPPALAMAGYDLGPAAVVLGEEAPAPVKGIAFDRLRNPLESLKNVFSLFN
modifications: Micractinium conductrix
[1]
  Purification Status (binding to THC): Binds to CBD
[2]
  Purification Status (binding to CBD): Binds to CBD
